Assay results as given in paper PMC11460708 (PLOS Pathogens, 2024).

Key:
BA.1 RBD = molecular target: T1, BA.1 RBD (SARS-CoV-2 Omicron BA.1 (GISAID …, strain)); assay: SPR; details: both partners purified
T1 construct: not shown: His tag, C-terminal, kept

XBB.1.5 RBD = molecular target: T2, XBB.1.5 RBD (SARS-CoV-2 Omicron XBB.1.5 (GISAID …, E484A (prototypic numbering) | F490S (prototypic numbering))); assay: SPR; details: both partners purified
T2 construct: not shown: His tag, C-terminal, kept

B1: Nanosota-3C (VHH)
VHH: QVQLQESGGGLVQAGGSLRLSCAASGSIFSPNTMGWFRQALGKQREGVAFISSIASTSYWLPVKGRFTITRDNTKNTVHLQMNSLIPEDTAVYYCYAVDKSQDYWGQGTQVTVSS
BA.1 RBD
  Kd: 27.3 nM
XBB.1.5 RBD
  Kd: 2.04 nM
